One data set deals with tPA (Homo sapiens, UniProt P00750). Description: ELISA, binding of β2GPI to immobilized tPA. As for the experimental part: Binding of purified human factor XII from plasma (Calbiochem) or of purified recombinant human tPA to β2GPI purified from human plasma, or to recombinant human β2GPI was tested in an ELISA. Ten μg of factor XII or tPA in PBS was coated onto wells of a Costar 2595 ELISA plate (Cambridge, USA) and incubated with concentration series of the two β2GPI preparations. Binding of β2GPI was assessed with monoclonal antibody 2B2^22.

The nature of data set [1]: Thioflavin T fluorescence of protein solutions. The data set is classed as physicochemical. Particulars: initial, compared with native β2GPI purified from plasma. As for the experimental part:
Fluorescence of ThT—protein/peptide adducts was measured as follows. […] Fluorescence was measured at 485 nm upon excitation at 435 nm. Background signals from buffer, buffer with ThT and protein/peptide solution without ThT were subtracted from corresponding measurements with protein solution incubated with ThT. Regularly, fluorescence of Aβ was used as a positive control, and fluorescence of FP10, a non-amyloid fibrin fragment^16, was used as a negative control. Fluorescence was measured in triplicate on a Hitachi F-4500 fluorescence spectrophotometer (Ltd., Tokyo, Japan).
Formulated protein therapeutics were obtained from the local hospital pharmacy and were used as supplied by the manufacturers. […] Lyophilized therapeutics were dissolved according to the manufacturers recommendations. GH, zinc-insulin, Cealb and gelatin were stored at −20, 4, room temperature, 37 and 65° C. Other protein therapeutics were only kept at 4° C., and assayed for the presence of cross-β structure at shown time points. Enhancement in fluorescence of ThT and Congo red was measured with all formulated protein therapeutics. […]
ThT fluorescence of β2GPI was measured as follows. […] In the ThT fluorescence assay, fluorescence of β2GPI in buffer, of CL or DXS500k in buffer, of buffer and ThT alone, and of β2GPI-CL adducts and β2GPI-DXS500k adducts, with or without ThT, was recorded as described above (section ThT fluorescence). In addition, TEM images were recorded with CL, β2GPI from human plasma, with or without CL, and with recombinant β2GPI, as described^5.
To prepare structurally altered ovalbumin (OVA) with amyloid cross-β structures, purified OVA (Sigma, A-7641, lot 071k7094) was heated to 85° C. […] Native OVA (nOVA) and heat-denatured OVA (dOVA) were tested in the ThT fluorescence assay and in the Plg-activation assay. In the fluorescence assay and in the Plg-activation assay, 25 and 100 μg ml^−1 nOVA and dOVA were tested, respectively. […]
MSA (#126674, Calbiochem) was dissolved in 8 M urea, 100 mM Tris-HCl pH 8.2, at 10 mg ml^−1 final concentration. […] The presence of aggregates or fibrils was analyzed using TEM. […]

Chain of tPA (P00750 36-562): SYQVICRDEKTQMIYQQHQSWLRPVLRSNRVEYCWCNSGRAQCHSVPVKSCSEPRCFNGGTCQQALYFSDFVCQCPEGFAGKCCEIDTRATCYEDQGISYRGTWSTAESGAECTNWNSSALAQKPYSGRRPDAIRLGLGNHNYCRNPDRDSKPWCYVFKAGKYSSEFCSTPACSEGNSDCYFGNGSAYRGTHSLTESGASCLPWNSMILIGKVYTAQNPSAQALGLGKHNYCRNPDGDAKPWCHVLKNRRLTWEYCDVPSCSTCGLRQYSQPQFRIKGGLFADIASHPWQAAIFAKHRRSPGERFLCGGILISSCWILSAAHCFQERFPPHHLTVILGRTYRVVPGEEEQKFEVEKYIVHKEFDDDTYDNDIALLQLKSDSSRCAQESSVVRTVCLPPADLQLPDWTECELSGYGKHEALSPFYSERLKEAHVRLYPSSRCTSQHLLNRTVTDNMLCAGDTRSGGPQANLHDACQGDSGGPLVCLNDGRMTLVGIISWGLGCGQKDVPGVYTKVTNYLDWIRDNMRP

B1: recombinant β2GPI: recombinant human β2-glycoprotein I made using insect cells (protein)
chain: GRTCPKPDDLPFSTVVPLKTFYEPGEEITYSCKPGYVSRGGMRKFICPLTGLWPINTLKCTPRVCPFAGILENGAVRYTTFEYPNTISFSCNTGFYLNGADSAKCTEEGKWSPELPVCAPIICPPPSIPTFATLRVYKPSAGNNSLYRDTAVFECLPQHAMFGNDTITCTTHGNWTKLPECREVKCPFPSRPDNGFVNYPAKPTLYYKDKATFGCHDGYSLDGPEEIECTKLGNWSAMPSCKASCKVPVKKATVVYQGERVKIQEKFKNGMLHGDKVSFFCKNKEKKCSYTEDAQCIDGTIEVPKCFKEHSSLAFWKTDASDVKPC
Turning to B1, the “binding to tPA” value with tPA was “bind”. In addition, in data set [1], the ThT fluorescence signal entry was “higher ThT fluorescence signal than native β2GPI purified from plasma”.

These data come from patent publication US20080220446A1, “Method for Detecting and/or Removing Protein and/or Peptide Comprising a Cross-Beta Structure From an Aqueous Solution Comprising a Protein” (priority 2005, published 2008).
